B1: Natural cytotoxicity triggering receptor 3 (Homo sapiens), O14931 (parent)
chain: MAWMLLLILIMVHPGSCALWVSQPPEIRTLEGSSAFLPCSFNASQGRLAIGSVTWFRDEVVPGKEVRNGTPEFRGRLAPLASSRFLHDHQAELHIRDVRGHDASIYVCRVEVLGLGVGTGNGTRLVVEKEHPQLGAGTVLLLRAGFYAVSFLSVAVGSTVYYQGKCLTWKGPRRQLPAVVPAPLPPPCGSSAHLLPPVPGG
partner: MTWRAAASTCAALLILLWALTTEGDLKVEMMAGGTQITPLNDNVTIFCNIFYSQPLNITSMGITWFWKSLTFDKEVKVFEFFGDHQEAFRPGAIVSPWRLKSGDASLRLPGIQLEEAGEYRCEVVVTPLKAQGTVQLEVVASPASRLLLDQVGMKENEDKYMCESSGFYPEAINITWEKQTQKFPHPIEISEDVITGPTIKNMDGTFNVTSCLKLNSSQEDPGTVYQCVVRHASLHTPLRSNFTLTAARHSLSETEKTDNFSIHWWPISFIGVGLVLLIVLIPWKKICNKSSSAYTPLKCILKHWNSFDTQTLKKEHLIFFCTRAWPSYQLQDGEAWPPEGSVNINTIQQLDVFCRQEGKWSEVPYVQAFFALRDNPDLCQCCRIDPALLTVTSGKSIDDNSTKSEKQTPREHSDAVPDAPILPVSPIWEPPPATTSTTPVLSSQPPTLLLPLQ

Variants of: B1
Conditions: with nr3l1_human NCR3LG1, Q68D85

Row | Variant | effect of a mutation on the interaction
1 | S52R | disrupting interaction strength
2 | I50A;S52A | decreasing interaction strength
3 | F85A;L86A | decreasing interaction strength
